Experimental data taken from patent US7498127 (dated 2009).

Legend:
[1] = target: T1, GST binding HB-EGF remaining fragment (UniProt P08515 1-218 = GST; Q99075 185-208); test: GST pull-down, anti-FLAG immunoblot
T1 construct: also called remaining fragments of HB-EGF
Procedure: Test Method (1) In order to specify a region of PLZF protein that interacts with a remaining fragment, GST pull-down assay was performed.
(2) GST, GST binding HB-LGF remaining fragments that were expressed and isolated with *E. coli* BL21 strain according to the GST pull-down assay standard protocol were used. The fragments were bound to Glutathione Sepharose beads, and then cell lysates containing various FLAG-tagged PLZF protein derivatives were incubated with 20 µl of the beads at 4° C. for two hours. After washing with water, the bound protein was analyzed by immunoblotting using anti-FLAG antibody (referring to the peptide sold under the trademark FLAG by Sigma Aldrich Co.).

[2] = target: T1, GST binding HB-EGF remaining fragment; test: GST pull-down, same method as Test Example 1

T1 sequence (P08515 1-218, tags or fused parts left off): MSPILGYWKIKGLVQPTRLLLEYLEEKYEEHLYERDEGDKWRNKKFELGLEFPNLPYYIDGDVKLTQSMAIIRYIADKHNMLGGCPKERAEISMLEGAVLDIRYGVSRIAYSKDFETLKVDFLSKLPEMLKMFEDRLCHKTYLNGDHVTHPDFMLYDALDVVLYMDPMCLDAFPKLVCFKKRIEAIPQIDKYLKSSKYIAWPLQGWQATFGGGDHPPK

B1: PLZF protein derivative consisting only of the BTB region (other, UniProt Q05516 1-132, looked up)
chain: MDLTKMGMIQLQNPSHPTGLLCKANQMRLAGTLCDVVIMVDSQEFHAHRTVLACTSKMFEILFHRNSQHYTLDFLSPKTFQQILEYAYTATLQAKAEDLDDLLYAAEILEIEYLEEQCLKMLETIQASDDND
notes: domain: BTB region; also called FLAG-tagged PLZF protein derivative 6); not shown: FLAG synthetic octapeptide tag (Sigma-Aldrich)
binding result [1]: no binding

B2: PLZF protein derivative consisting only of a region of Zn6 to Zn7 (other, UniProt Q05516 546-596, looked up)
chain: YECEFCGSCFRDESTLKSHKRIHTGEKPYECNGCGKKFSLKHQLETHYRVH
notes: domain: Zn6 to Zn7; also called FLAG-tagged PLZF protein derivative 7); not shown: FLAG synthetic octapeptide tag (Sigma-Aldrich)
binding result [1]: no binding

B3: Bcl-6 protein derivative consisting only of a region of Zn1 to Zn4 (other, UniProt P41182 518-624, looked up, not shown: small tags and cut ends)
chain: FFCNECDCRFSEEASLKRHTLQTHSDKPYKCDRCQASFRYKGNLASHKTVHTGEKPYRCNICGAQFNRPANLKTHTRIHSGEKPYKCETCGARFVQVAHLRAHVLIH
notes: domain: Zn1 to Zn4; also called Bcl-6 protein derivative 8)
binding result [2]: no binding
